From the supplement of paper PMC6757056
± gives the standard deviation of the averaged measurements.

B1: library; a variant is named by its letters at N, in order (parent)
chain: GCUGUCACCGAGAAACUGUGAAGUAUAUCUUAAACCUGGGCACUUAAAAGAUAUAUGGAGUUAGUAGUGCAACCUGCUCGGUCUGAUGAGUCCNNNNNNGGACGAAACAGC

How the values were obtained:
[1] = variants of: B1; test: normalized RNA/DNA level without ligand (relative to sTRSVctl = 100) (log10 (% of sTRSVctl)); HEK293T; ligand: cyclic di-GMP (c-di-GMP-II aptamer); higher = less ribozyme self-cleavage, higher mRNA level; details: reporter: mCherry (pCS4076), ligand present: no
Procedure, shortened: (§1)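 Ribozyme switch library plasmids with mCherry reporters (eGFP in certain ligand experiments) went into HEK293T cells at 4 µg per 6-well well. Where ligand was used, it was applied 1 h before transfection, and total RNA was extracted with EDTA 72 h later for reverse transcription, amplification, barcoding and sequencing. RNA level is the RNA-to-DNA read ratio normalized to a spiked-in non-cleaving sequence or to the leading sequences, then scaled and log-transformed. Scaling was ×100 with log10, the leading set comprised 25 sequences, and the cutoff was ≥100 DNA reads.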

[2] = variants of: B1; test: normalized RNA/DNA level with ligand (relative to sTRSVctl = 100) (log10 (% of sTRSVctl)); HEK293T; ligand: cyclic di-GMP (c-di-GMP-II aptamer); ligand concentration (+) RNA-Seq: 1 mM; higher = less ribozyme self-cleavage, higher mRNA level; details: reporter: mCherry (pCS4076), ligand present: yes
Procedure, shortened: as §1

AAGGCC
normalized RNA/DNA level without ligand (log10) [1]: 1.759 ± 0.0039
normalized RNA/DNA level with ligand (log10) [2]: 1.83 ± 0.083

GCUUUU
normalized RNA/DNA level without ligand (log10) [1]: 1.67 ± 0.03
normalized RNA/DNA level with ligand (log10) [2]: 1.8 ± 0.11

GCGUCU
normalized RNA/DNA level without ligand (log10) [1]: 1.67 ± 0.03
normalized RNA/DNA level with ligand (log10) [2]: 1.83 ± 0.1

UAUCAA
normalized RNA/DNA level without ligand (log10) [1]: 1.7 ± 0.031
normalized RNA/DNA level with ligand (log10) [2]: 1.83 ± 0.11

UCGUAU
normalized RNA/DNA level without ligand (log10) [1]: 1.53 ± 0.068
normalized RNA/DNA level with ligand (log10) [2]: 1.76 ± 0.12

GUCAUA
normalized RNA/DNA level without ligand (log10) [1]: 1.57 ± 0.025
normalized RNA/DNA level with ligand (log10) [2]: 1.76 ± 0.14

GACACC
normalized RNA/DNA level without ligand (log10) [1]: 1.71 ± 0.044
normalized RNA/DNA level with ligand (log10) [2]: 1.83 ± 0.075

AUCCAA
normalized RNA/DNA level without ligand (log10) [1]: 1.56 ± 0.053
normalized RNA/DNA level with ligand (log10) [2]: 1.73 ± 0.12

GGCAUA
normalized RNA/DNA level without ligand (log10) [1]: 1.58 ± 0.11
normalized RNA/DNA level with ligand (log10) [2]: 1.72 ± 0.14

UUGAGC
normalized RNA/DNA level without ligand (log10) [1]: 1.73 ± 0.025
normalized RNA/DNA level with ligand (log10) [2]: 1.86 ± 0.14

UAAGGG
normalized RNA/DNA level without ligand (log10) [1]: 1.58 ± 0.031
normalized RNA/DNA level with ligand (log10) [2]: 1.73 ± 0.13

GCAGAC
normalized RNA/DNA level without ligand (log10) [1]: 1.42 ± 0.068
normalized RNA/DNA level with ligand (log10) [2]: 1.59 ± 0.079

UCCCGA
normalized RNA/DNA level without ligand (log10) [1]: 1.77 ± 0.059
normalized RNA/DNA level with ligand (log10) [2]: 1.87 ± 0.1

AAUAGC
normalized RNA/DNA level without ligand (log10) [1]: 1.62 ± 0.047
normalized RNA/DNA level with ligand (log10) [2]: 1.8 ± 0.1

CCGCCU
normalized RNA/DNA level without ligand (log10) [1]: 1.7 ± 0.0065
normalized RNA/DNA level with ligand (log10) [2]: 1.84 ± 0.099

GCGAGU
normalized RNA/DNA level without ligand (log10) [1]: 1.53 ± 0.071
normalized RNA/DNA level with ligand (log10) [2]: 1.69 ± 0.11

UUUUCA
normalized RNA/DNA level without ligand (log10) [1]: 1.8 ± 0.025
normalized RNA/DNA level with ligand (log10) [2]: 1.91 ± 0.12

CAUGUU
normalized RNA/DNA level without ligand (log10) [1]: 1.72 ± 0.043
normalized RNA/DNA level with ligand (log10) [2]: 1.88 ± 0.085

CAGAUG
normalized RNA/DNA level without ligand (log10) [1]: 1.63 ± 0.0074
normalized RNA/DNA level with ligand (log10) [2]: 1.75 ± 0.13

GCCACU
normalized RNA/DNA level without ligand (log10) [1]: 1.684 ± 0.016
normalized RNA/DNA level with ligand (log10) [2]: 1.86 ± 0.12

GUUGCA
normalized RNA/DNA level without ligand (log10) [1]: 1.81 ± 0.038
normalized RNA/DNA level with ligand (log10) [2]: 1.87 ± 0.1

UGCUCC
normalized RNA/DNA level without ligand (log10) [1]: 1.858 ± 0.016
normalized RNA/DNA level with ligand (log10) [2]: 1.93 ± 0.17

GCGCUG
normalized RNA/DNA level without ligand (log10) [1]: 1.77 ± 0.049
normalized RNA/DNA level with ligand (log10) [2]: 1.84 ± 0.14

UGGAGC
normalized RNA/DNA level without ligand (log10) [1]: 1.64 ± 0.062
normalized RNA/DNA level with ligand (log10) [2]: 1.81 ± 0.15

AACAAC
normalized RNA/DNA level without ligand (log10) [1]: 1.542 ± 0.01
normalized RNA/DNA level with ligand (log10) [2]: 1.75 ± 0.11

CCGGUC
normalized RNA/DNA level without ligand (log10) [1]: 1.622 ± 0.0071
normalized RNA/DNA level with ligand (log10) [2]: 1.83 ± 0.073

GCCCCG
normalized RNA/DNA level without ligand (log10) [1]: 1.799 ± 0.012
normalized RNA/DNA level with ligand (log10) [2]: 1.84 ± 0.086

UUGGAU
normalized RNA/DNA level without ligand (log10) [1]: 1.63 ± 0.032
normalized RNA/DNA level with ligand (log10) [2]: 1.83 ± 0.1

GCUGAG
normalized RNA/DNA level without ligand (log10) [1]: 1.5 ± 0.079
normalized RNA/DNA level with ligand (log10) [2]: 1.67 ± 0.069

UUUUAA
normalized RNA/DNA level without ligand (log10) [1]: 1.725 ± 0.014
normalized RNA/DNA level with ligand (log10) [2]: 1.86 ± 0.11

GCUGUC
normalized RNA/DNA level without ligand (log10) [1]: 1.43 ± 0.14
normalized RNA/DNA level with ligand (log10) [2]: 1.72 ± 0.024

UUUUUG
normalized RNA/DNA level without ligand (log10) [1]: 1.77 ± 0.028
normalized RNA/DNA level with ligand (log10) [2]: 1.87 ± 0.088

CGGCGU
normalized RNA/DNA level without ligand (log10) [1]: 1.726 ± 0.013
normalized RNA/DNA level with ligand (log10) [2]: 1.91 ± 0.16

CUCUGC
normalized RNA/DNA level without ligand (log10) [1]: 1.7905 ± 0.00063
normalized RNA/DNA level with ligand (log10) [2]: 1.83 ± 0.13

AUCCCC
normalized RNA/DNA level without ligand (log10) [1]: 1.8 ± 0.048
normalized RNA/DNA level with ligand (log10) [2]: 1.92 ± 0.099

GGGAAA
normalized RNA/DNA level without ligand (log10) [1]: 1.46 ± 0.14
normalized RNA/DNA level with ligand (log10) [2]: 1.544 ± 0.007

UAGUAA
normalized RNA/DNA level without ligand (log10) [1]: 1.652 ± 0.0068
normalized RNA/DNA level with ligand (log10) [2]: 1.8 ± 0.12

GAGUCU
normalized RNA/DNA level without ligand (log10) [1]: 1.8 ± 0.07
normalized RNA/DNA level with ligand (log10) [2]: 1.85 ± 0.076

UCCUUC
normalized RNA/DNA level without ligand (log10) [1]: 1.71 ± 0.027
normalized RNA/DNA level with ligand (log10) [2]: 1.87 ± 0.11

AUAGAU
normalized RNA/DNA level without ligand (log10) [1]: 1.58 ± 0.056
normalized RNA/DNA level with ligand (log10) [2]: 1.72 ± 0.12

GUGCAG
normalized RNA/DNA level without ligand (log10) [1]: 1.86 ± 0.06
normalized RNA/DNA level with ligand (log10) [2]: 1.89 ± 0.13

GCGGGC
normalized RNA/DNA level without ligand (log10) [1]: 1.53 ± 0.028
normalized RNA/DNA level with ligand (log10) [2]: 1.69 ± 0.064

UCACUA
normalized RNA/DNA level without ligand (log10) [1]: 1.51 ± 0.022
normalized RNA/DNA level with ligand (log10) [2]: 1.73 ± 0.099

UAAAGG
normalized RNA/DNA level without ligand (log10) [1]: 1.635 ± 0.0018
normalized RNA/DNA level with ligand (log10) [2]: 1.78 ± 0.088

UCGCAG
normalized RNA/DNA level without ligand (log10) [1]: 1.762 ± 0.0034
normalized RNA/DNA level with ligand (log10) [2]: 1.87 ± 0.13

CUUGCG
normalized RNA/DNA level without ligand (log10) [1]: 1.78 ± 0.02
normalized RNA/DNA level with ligand (log10) [2]: 1.86 ± 0.12

CUUGCA
normalized RNA/DNA level without ligand (log10) [1]: 1.66 ± 0.018
normalized RNA/DNA level with ligand (log10) [2]: 1.77 ± 0.1

GGCGUC
normalized RNA/DNA level without ligand (log10) [1]: 1.68 ± 0.077
normalized RNA/DNA level with ligand (log10) [2]: 1.79 ± 0.17

CUGCGU
normalized RNA/DNA level without ligand (log10) [1]: 1.723 ± 0.013
normalized RNA/DNA level with ligand (log10) [2]: 1.84 ± 0.1

UCUUUC
normalized RNA/DNA level without ligand (log10) [1]: 1.755 ± 0.014
normalized RNA/DNA level with ligand (log10) [2]: 1.86 ± 0.089

GCUGCC
normalized RNA/DNA level without ligand (log10) [1]: 1.67 ± 0.067
normalized RNA/DNA level with ligand (log10) [2]: 1.83 ± 0.16

GAAUCU
normalized RNA/DNA level without ligand (log10) [1]: 1.698 ± 0.0076
normalized RNA/DNA level with ligand (log10) [2]: 1.82 ± 0.12

CUAGCA
normalized RNA/DNA level without ligand (log10) [1]: 1.71 ± 0.064
normalized RNA/DNA level with ligand (log10) [2]: 1.78 ± 0.13

GAUUCC
normalized RNA/DNA level without ligand (log10) [1]: 1.8 ± 0.097
normalized RNA/DNA level with ligand (log10) [2]: 1.87 ± 0.14

UCGAUC
normalized RNA/DNA level without ligand (log10) [1]: 1.62 ± 0.032
normalized RNA/DNA level with ligand (log10) [2]: 1.79 ± 0.16

AAGUAG
normalized RNA/DNA level without ligand (log10) [1]: 1.68 ± 0.024
normalized RNA/DNA level with ligand (log10) [2]: 1.77 ± 0.12

UACGGG
normalized RNA/DNA level without ligand (log10) [1]: 1.62 ± 0.048
normalized RNA/DNA level with ligand (log10) [2]: 1.79 ± 0.09

GAGGGU
normalized RNA/DNA level without ligand (log10) [1]: 1.71 ± 0.024
normalized RNA/DNA level with ligand (log10) [2]: 1.75 ± 0.14
